Source: the supplement of paper PMC9112550, “Optimization of the antimicrobial peptide Bac7 by deep mutational scanning” (BMC Biology, 2022)

What follows are sequences tested on Escherichia coli TOP10 (assay: shrunken log2 fold change of peptide-encoding DNA abundance (4.5 h post-induction vs induction); higher = less antimicrobial activity (less host growth inhibition)). Conditions: time post-induction: 4.5 h; library: site-saturation at positions 5, 18, 19, 20.
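Further: peptides expressed intracellularly from a pBAD plasmid library in pooled LB shake-flask culture, induced with 0.3% L-arabinose, DNA abundance read by NGS, three biological replicates, DESeq2 with apeglm shrinkage.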

RRIRCRPPRLPRPRPRPMDKPRP and RRIRKRPPRLPRPRPRPQWNPRP are within 0.2 log units of each other in “shrunken log2 fold change” value: -0.131 for the first, -0.105 for the second.

RRIRARPPRLPRPRPRPMGNPRP and RRIRGRPPRLPRPRPRPQDNPRP are within 0.2 log units of each other in “shrunken log2 fold change” value: -0.101 for the first, 0.0555 for the second.

First: RRIRWRPPRLPRPRPRPATQPRP
Second: RRIRYRPPRLPRPRPRPQKMPRP
The “shrunken log2 fold change” value of the first is higher: 0.105 for the first, -0.295 for the second.

RRIRWRPPRLPRPRPRPSCRPRP and RRIRNRPPRLPRPRPRPIEPPRP are within 0.2 log units of each other in “shrunken log2 fold change” value: 0.0511 for the first, -0.00208 for the second.

RRIRLRPPRLPRPRPRPTMGPRP and RRIRVRPPRLPRPRPRPTLSPRP are within 0.2 log units of each other in “shrunken log2 fold change” value: 0.147 for the first, -0.0525 for the second.

First: RRIRERPPRLPRPRPRPFQVPRP
Second: RRIRQRPPRLPRPRPRPKVWPRP
The “shrunken log2 fold change” value of the first is lower: -0.212 for the first, 0.153 for the second.

Going from RRIRLRPPRLPRPRPRPTVWPRP to RRIRTRPPRLPRPRPRPWSKPRP, the “shrunken log2 fold change” value falls from 0.387 to -0.0826.

RRIRYRPPRLPRPRPRPFHGPRP and RRIRKRPPRLPRPRPRPHLSPRP are within 0.2 log units of each other in “shrunken log2 fold change” value: 0.0221 for the first, 0.0468 for the second.

Compared with RRIRMRPPRLPRPRPRPWWIPRP, RRIRCRPPRLPRPRPRPGGMPRP is higher in “shrunken log2 fold change” value: -0.442 for the first, 0.215 for the second.

RRIRVRPPRLPRPRPRPYDIPRP and RRIRSRPPRLPRPRPRPVPLPRP are within 0.2 log units of each other in “shrunken log2 fold change” value: -0.279 for the first, -0.0843 for the second.

Going from RRIRTRPPRLPRPRPRPKTRPRP to RRIRIRPPRLPRPRPRPKEKPRP, the “shrunken log2 fold change” value falls from 0.221 to 0.00643.

RRIRDRPPRLPRPRPRPLTQPRP and RRIRKRPPRLPRPRPRPITHPRP are within 0.2 log units of each other in “shrunken log2 fold change” value: 0.0757 for the first, -0.0971 for the second.

RRIRTRPPRLPRPRPRPSLLPRP and RRIRNRPPRLPRPRPRPHVQPRP are within 0.2 log units of each other in “shrunken log2 fold change” value: -0.0532 for the first, -0.0883 for the second.

Going from RRIRYRPPRLPRPRPRPMTGPRP to RRIRKRPPRLPRPRPRPNTDPRP, the “shrunken log2 fold change” value falls from 0.0192 to -0.261.

Going from RRIRFRPPRLPRPRPRPHWVPRP to RRIRIRPPRLPRPRPRPYAIPRP, the “shrunken log2 fold change” value rises from -0.523 to -0.0122.

Going from RRIRNRPPRLPRPRPRPQKHPRP to RRIRHRPPRLPRPRPRPYKTPRP, the “shrunken log2 fold change” value rises from -0.227 to -0.00968.

Going from RRIRWRPPRLPRPRPRPPRDPRP to RRIRNRPPRLPRPRPRPFVYPRP, the “shrunken log2 fold change” value falls from 0.661 to -0.0264.

First: RRIRLRPPRLPRPRPRPYFKPRP
Second: RRIRVRPPRLPRPRPRPCMYPRP
The “shrunken log2 fold change” value of the first is lower: -1.3 for the first, -0.387 for the second.

First: RRIRFRPPRLPRPRPRPANWPRP
Second: RRIRRRPPRLPRPRPRPNITPRP
The “shrunken log2 fold change” value of the first is higher: 0.166 for the first, -0.128 for the second.

First: RRIRWRPPRLPRPRPRPVYGPRP
Second: RRIRRRPPRLPRPRPRPPPMPRP
The “shrunken log2 fold change” value of the first is lower: -0.083 for the first, 0.959 for the second.

Going from RRIRFRPPRLPRPRPRPMPCPRP to RRIRPRPPRLPRPRPRPKFFPRP, the “shrunken log2 fold change” value rises from -0.557 to 0.0479.

First: RRIRRRPPRLPRPRPRPSEFPRP
Second: RRIRLRPPRLPRPRPRPPPVPRP
The “shrunken log2 fold change” value of the first is lower: 0.00596 for the first, 0.98 for the second.

RRIRSRPPRLPRPRPRPGLEPRP and RRIRERPPRLPRPRPRPFAWPRP are within 0.2 log units of each other in “shrunken log2 fold change” value: 0.00456 for the first, 0.143 for the second.

First: RRIRRRPPRLPRPRPRPEMNPRP
Second: RRIRWRPPRLPRPRPRPQNYPRP
The “shrunken log2 fold change” value of the first is higher: 0.406 for the first, -0.445 for the second.

Going from RRIRLRPPRLPRPRPRPSAYPRP to RRIRDRPPRLPRPRPRPYGYPRP, the “shrunken log2 fold change” value falls from 0.0888 to -0.575.

Going from RRIRWRPPRLPRPRPRPWRKPRP to RRIRRRPPRLPRPRPRPIPQPRP, the “shrunken log2 fold change” value rises from -0.139 to 0.336.

RRIRSRPPRLPRPRPRPCCHPRP and RRIRKRPPRLPRPRPRPEDTPRP are within 0.2 log units of each other in “shrunken log2 fold change” value: -0.0953 for the first, 0.103 for the second.

First: RRIRLRPPRLPRPRPRPDHRPRP
Second: RRIRGRPPRLPRPRPRPVVPPRP
The “shrunken log2 fold change” value of the first is lower: -0.041 for the first, 0.338 for the second.

RRIRHRPPRLPRPRPRPTHIPRP and RRIRTRPPRLPRPRPRPYWFPRP are within 0.2 log units of each other in “shrunken log2 fold change” value: -0.468 for the first, -0.535 for the second.

Compared with RRIRQRPPRLPRPRPRPSEMPRP, RRIRIRPPRLPRPRPRPRPAPRP is higher in “shrunken log2 fold change” value: 0.0648 for the first, 0.286 for the second.
